This is an account of results in article PMC9565801 (Science Advances, 2022).

The data set concerns the molecule itself. The data set can be described thus: crystal structure.

Positions count from the first letter of the chain named. Names may count otherwise.

B1: ketosteroid isomerase (KSI) Y32F/Y57F from Pseudomonas putida (enzyme)
chain: MNLPTAQEVQGLMARYIELVDVGDIEAIVQMFADDATVEDPFGQPPIHGREQIAAFFRQGLGGGKVRACLTGPVRASHNGCGAMPFRVEMVWNGQPCALDVIDVMRFDEHGRIQTMQAYWSEVNLSVREPQ
In the case of B1, the “stoichiometry N” value turned out to be 2.

B2: ketosteroid isomerase (KSI) Y57F from Pseudomonas putida (enzyme)
chain: B1 chain with F32Y
Turning to B2, the “stoichiometry N” value stood at 2.

Usually stoichiometry N stands for a count of units in the complex or per binding partner.
